These results are taken from patent US7183387 (Genentech, dated 2007).

In experiment [1] the target is T1, human FcγRIIA-R131 α subunit extracellular domain-His6-GST fusion (human, UniProt P12318 34-217).
T1 construct: ECD-6His-GST fusion made in 293 cells; also called FcγRIIA-Arg131; not shown: glutathione S transferase (GST)
T1 sequence: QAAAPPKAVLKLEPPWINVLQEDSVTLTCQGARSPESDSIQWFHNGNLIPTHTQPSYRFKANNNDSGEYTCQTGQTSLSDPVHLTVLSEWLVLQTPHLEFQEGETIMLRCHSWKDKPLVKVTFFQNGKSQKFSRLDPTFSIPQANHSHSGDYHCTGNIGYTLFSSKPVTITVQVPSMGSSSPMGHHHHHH
The experiment in a line: ELISA, IgG complex, receptor coated.

Experiment [2] addresses T2, human FcγRIIIA-F158 α subunit extracellular domain-His6-GST fusion (human, UniProt P08637 17-208).
T2 construct: ECD-6His-GST fusion made in 293 cells; also called FcγRIIIA-Phe158; not shown: glutathione S transferase (GST)
The experiment in a line: ELISA, IgG complex, receptor coated.

Experiment [3] addresses T3, human FcγRIIIA-V158 α subunit extracellular domain-His6-GST fusion (human, UniProt P08637 17-208).
T3 construct: ECD-6His-GST fusion made in 293 cells; also called FcγRIIIA-Val158; not shown: glutathione S transferase (GST)
The experiment in a line: ELISA, IgG monomer, receptor coated.

T2 sequence (P08637 other isoform, or with tags, fused parts or gaps, form in doubt): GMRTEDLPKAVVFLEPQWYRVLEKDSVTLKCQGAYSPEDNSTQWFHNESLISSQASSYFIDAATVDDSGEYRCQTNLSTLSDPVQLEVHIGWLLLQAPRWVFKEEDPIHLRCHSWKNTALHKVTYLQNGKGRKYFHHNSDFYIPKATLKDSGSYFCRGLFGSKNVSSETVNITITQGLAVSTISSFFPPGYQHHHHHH
T3 sequence (P08637 other isoform, or with tags, fused parts or gaps, form in doubt): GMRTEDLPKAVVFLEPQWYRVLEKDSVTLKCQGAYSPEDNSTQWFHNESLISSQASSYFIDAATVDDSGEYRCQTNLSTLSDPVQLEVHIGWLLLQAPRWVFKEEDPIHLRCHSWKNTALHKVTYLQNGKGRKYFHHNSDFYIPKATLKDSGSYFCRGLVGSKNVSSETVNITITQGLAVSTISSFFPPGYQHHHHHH

B1: anti-IgE E27 IgG1 variant E283(300)D (antibody)
heavy: not shown
light: DIQLTQSPSSLSASVGDRVTITCRASKPVDGEGDSYLNWYQQKPGKAPKLLIYAASYLESGVPSRFSGSGSGTDFTLTISSLQPEDFATYYCQQSHEDPYTFGQGTKVEIKRTVAAPSVFIFPPSDEQLKSGTASVVCLLNNFYPREAKVQWKVDNALQSGNSQESVTEQDSKDSTYSLSSTLTLSKADYEKHKVYACEVTHQGLSSPVTKSFNRGEC
notes: Fc variant of E27
Turning to B1, the “ratio of binding, variant/native IgG1 (mean)” value amounted to 1.14 ratio in experiment [1], 0.95 ratio in experiment [2] and 0.67 ratio in experiment [3].

B2: anti-IgE E27 IgG1 variant E380(405)A/L309(328)A (antibody)
heavy: not shown
light: DIQLTQSPSSLSASVGDRVTITCRASKPVDGEGDSYLNWYQQKPGKAPKLLIYAASYLESGVPSRFSGSGSGTDFTLTISSLQPEDFATYYCQQSHEDPYTFGQGTKVEIKRTVAAPSVFIFPPSDEQLKSGTASVVCLLNNFYPREAKVQWKVDNALQSGNSQESVTEQDSKDSTYSLSSTLTLSKADYEKHKVYACEVTHQGLSSPVTKSFNRGEC
notes: Fc variant of E27; also called IG2 271; Glu380Ala/Leu309Ala
Take B2: the “ratio of binding, variant/native IgG1 (mean)” value was determined as 0.98 ratio in experiment [1], 0.92 ratio in experiment [2] and 1.1 ratio in experiment [3].

B3: anti-IgE E27 IgG1 variant E283(300)S (antibody)
heavy: not shown
light: DIQLTQSPSSLSASVGDRVTITCRASKPVDGEGDSYLNWYQQKPGKAPKLLIYAASYLESGVPSRFSGSGSGTDFTLTISSLQPEDFATYYCQQSHEDPYTFGQGTKVEIKRTVAAPSVFIFPPSDEQLKSGTASVVCLLNNFYPREAKVQWKVDNALQSGNSQESVTEQDSKDSTYSLSSTLTLSKADYEKHKVYACEVTHQGLSSPVTKSFNRGEC
notes: Fc variant of E27; also called IG2 227
Take B3: the “ratio of binding, variant/native IgG1 (mean)” value in experiment [1] was determined as 1.03 ratio; in experiment [2], 0.85 ratio; in experiment [3], 0.83 ratio.

B4: anti-IgE E27 IgG1 variant E333(352)G (antibody)
heavy: not shown
light: DIQLTQSPSSLSASVGDRVTITCRASKPVDGEGDSYLNWYQQKPGKAPKLLIYAASYLESGVPSRFSGSGSGTDFTLTISSLQPEDFATYYCQQSHEDPYTFGQGTKVEIKRTVAAPSVFIFPPSDEQLKSGTASVVCLLNNFYPREAKVQWKVDNALQSGNSQESVTEQDSKDSTYSLSSTLTLSKADYEKHKVYACEVTHQGLSSPVTKSFNRGEC
notes: Fc variant of E27; also called IG2 178
Turning to B4, the figures for the “ratio of binding, variant/native IgG1 (mean)” value in experiment [1], in experiment [2] and in experiment [3] were 0.87 ratio, 1.05 ratio and 1.23 ratio, respectively.

B5: anti-IgE E27 IgG1 variant P331(350)N (antibody)
heavy: not shown
light: DIQLTQSPSSLSASVGDRVTITCRASKPVDGEGDSYLNWYQQKPGKAPKLLIYAASYLESGVPSRFSGSGSGTDFTLTISSLQPEDFATYYCQQSHEDPYTFGQGTKVEIKRTVAAPSVFIFPPSDEQLKSGTASVVCLLNNFYPREAKVQWKVDNALQSGNSQESVTEQDSKDSTYSLSSTLTLSKADYEKHKVYACEVTHQGLSSPVTKSFNRGEC
notes: Fc variant of E27; also called IG2 199
For the molecule B5, the “ratio of binding, variant/native IgG1 (mean)” value in experiment [1] was 0.86 ratio; in experiment [2], 0.23 ratio; in experiment [3], 0.24 ratio.

B6: anti-IgE E27 IgG1 variant E294(311)A (antibody)
heavy: not shown
light: DIQLTQSPSSLSASVGDRVTITCRASKPVDGEGDSYLNWYQQKPGKAPKLLIYAASYLESGVPSRFSGSGSGTDFTLTISSLQPEDFATYYCQQSHEDPYTFGQGTKVEIKRTVAAPSVFIFPPSDEQLKSGTASVVCLLNNFYPREAKVQWKVDNALQSGNSQESVTEQDSKDSTYSLSSTLTLSKADYEKHKVYACEVTHQGLSSPVTKSFNRGEC
notes: Fc variant of E27; also called IG2 33
As to B6, the entries for the “ratio of binding, variant/native IgG1 (mean)” value in experiment [1], in experiment [2] and in experiment [3] were 0.87 ratio, 0.66 ratio and 0.68 ratio, respectively.

B7: anti-IgE E27 IgG1 variant K334(353)R (antibody)
heavy: not shown
light: DIQLTQSPSSLSASVGDRVTITCRASKPVDGEGDSYLNWYQQKPGKAPKLLIYAASYLESGVPSRFSGSGSGTDFTLTISSLQPEDFATYYCQQSHEDPYTFGQGTKVEIKRTVAAPSVFIFPPSDEQLKSGTASVVCLLNNFYPREAKVQWKVDNALQSGNSQESVTEQDSKDSTYSLSSTLTLSKADYEKHKVYACEVTHQGLSSPVTKSFNRGEC
notes: Fc variant of E27; also called Lys334Arg
B7: the “ratio of binding, variant/native IgG1 (mean)” value in experiment [1] was 1.15 ratio; in experiment [2] it was 0.68 ratio; in experiment [3], 0.88 ratio.

B8: anti-IgE E27 IgG1 variant E294(311)D (antibody)
heavy: not shown
light: DIQLTQSPSSLSASVGDRVTITCRASKPVDGEGDSYLNWYQQKPGKAPKLLIYAASYLESGVPSRFSGSGSGTDFTLTISSLQPEDFATYYCQQSHEDPYTFGQGTKVEIKRTVAAPSVFIFPPSDEQLKSGTASVVCLLNNFYPREAKVQWKVDNALQSGNSQESVTEQDSKDSTYSLSSTLTLSKADYEKHKVYACEVTHQGLSSPVTKSFNRGEC
notes: Fc variant of E27; also called IG2 174
B8: the figures for the “ratio of binding, variant/native IgG1 (mean)” value in experiment [1], in experiment [2] and in experiment [3] were 0.37 ratio, 0.14 ratio and 0.26 ratio, respectively.

B9: anti-IgE E27 IgG1 variant E283(300)Q (antibody)
heavy: not shown
light: DIQLTQSPSSLSASVGDRVTITCRASKPVDGEGDSYLNWYQQKPGKAPKLLIYAASYLESGVPSRFSGSGSGTDFTLTISSLQPEDFATYYCQQSHEDPYTFGQGTKVEIKRTVAAPSVFIFPPSDEQLKSGTASVVCLLNNFYPREAKVQWKVDNALQSGNSQESVTEQDSKDSTYSLSSTLTLSKADYEKHKVYACEVTHQGLSSPVTKSFNRGEC
notes: Fc variant of E27; also called IG2 226
For B9, the “ratio of binding, variant/native IgG1 (mean)” value in experiment [1] is 1.12 ratio; in experiment [2], 1.19 ratio; in experiment [3] it was 0.89 ratio.

B10: anti-IgE E27 IgG1 variant P331(350)K (antibody)
heavy: not shown
light: DIQLTQSPSSLSASVGDRVTITCRASKPVDGEGDSYLNWYQQKPGKAPKLLIYAASYLESGVPSRFSGSGSGTDFTLTISSLQPEDFATYYCQQSHEDPYTFGQGTKVEIKRTVAAPSVFIFPPSDEQLKSGTASVVCLLNNFYPREAKVQWKVDNALQSGNSQESVTEQDSKDSTYSLSSTLTLSKADYEKHKVYACEVTHQGLSSPVTKSFNRGEC
notes: Fc variant of E27
With B10, the “ratio of binding, variant/native IgG1 (mean)” value in experiment [1] was determined as 0.94 ratio; in experiment [2] it was 0.33 ratio; in experiment [3] it was 0.26 ratio.

B11: anti-IgE E27 IgG1 variant R292(309)A (antibody)
heavy: not shown
light: DIQLTQSPSSLSASVGDRVTITCRASKPVDGEGDSYLNWYQQKPGKAPKLLIYAASYLESGVPSRFSGSGSGTDFTLTISSLQPEDFATYYCQQSHEDPYTFGQGTKVEIKRTVAAPSVFIFPPSDEQLKSGTASVVCLLNNFYPREAKVQWKVDNALQSGNSQESVTEQDSKDSTYSLSSTLTLSKADYEKHKVYACEVTHQGLSSPVTKSFNRGEC
notes: Fc variant of E27; also called IG2 31; G31
For B11, the “ratio of binding, variant/native IgG1 (mean)” value in experiment [1] stood at 0.27 ratio; in experiment [2] it was 0.9 ratio; in experiment [3], 0.94 ratio.

B12: anti-IgE E27 IgG1 variant E294(311)Q (antibody)
heavy: not shown
light: DIQLTQSPSSLSASVGDRVTITCRASKPVDGEGDSYLNWYQQKPGKAPKLLIYAASYLESGVPSRFSGSGSGTDFTLTISSLQPEDFATYYCQQSHEDPYTFGQGTKVEIKRTVAAPSVFIFPPSDEQLKSGTASVVCLLNNFYPREAKVQWKVDNALQSGNSQESVTEQDSKDSTYSLSSTLTLSKADYEKHKVYACEVTHQGLSSPVTKSFNRGEC
notes: Fc variant of E27; also called IG2 173
Regarding B12, the “ratio of binding, variant/native IgG1 (mean)” value amounted to 1.01 ratio in experiment [1], 0.84 ratio in experiment [2] and 0.79 ratio in experiment [3].

B13: anti-IgE E27 IgG1 variant E283(300)N (antibody)
heavy: not shown
light: DIQLTQSPSSLSASVGDRVTITCRASKPVDGEGDSYLNWYQQKPGKAPKLLIYAASYLESGVPSRFSGSGSGTDFTLTISSLQPEDFATYYCQQSHEDPYTFGQGTKVEIKRTVAAPSVFIFPPSDEQLKSGTASVVCLLNNFYPREAKVQWKVDNALQSGNSQESVTEQDSKDSTYSLSSTLTLSKADYEKHKVYACEVTHQGLSSPVTKSFNRGEC
notes: Fc variant of E27; also called IG2 228
In the case of B13, the “ratio of binding, variant/native IgG1 (mean)” value in experiment [1] was found to be 1.18 ratio; in experiment [2], 0.94 ratio; in experiment [3] it was 0.63 ratio.

B14: anti-IgE E27 IgG1 variant R292(309)H (antibody)
heavy: not shown
light: DIQLTQSPSSLSASVGDRVTITCRASKPVDGEGDSYLNWYQQKPGKAPKLLIYAASYLESGVPSRFSGSGSGTDFTLTISSLQPEDFATYYCQQSHEDPYTFGQGTKVEIKRTVAAPSVFIFPPSDEQLKSGTASVVCLLNNFYPREAKVQWKVDNALQSGNSQESVTEQDSKDSTYSLSSTLTLSKADYEKHKVYACEVTHQGLSSPVTKSFNRGEC
notes: Fc variant of E27; also called IG2 81
As for B14, the “ratio of binding, variant/native IgG1 (mean)” value in experiment [1] came out at 0.21 ratio; in experiment [2] it was 0.92 ratio; in experiment [3] it was 1.21 ratio.

B15: anti-IgE E27 IgG1 variant P331(350)S (antibody)
heavy: not shown
light: DIQLTQSPSSLSASVGDRVTITCRASKPVDGEGDSYLNWYQQKPGKAPKLLIYAASYLESGVPSRFSGSGSGTDFTLTISSLQPEDFATYYCQQSHEDPYTFGQGTKVEIKRTVAAPSVFIFPPSDEQLKSGTASVVCLLNNFYPREAKVQWKVDNALQSGNSQESVTEQDSKDSTYSLSSTLTLSKADYEKHKVYACEVTHQGLSSPVTKSFNRGEC
notes: Fc variant of E27; also called IG2 198; Pro331Ser
B15: the entries for the “ratio of binding, variant/native IgG1 (mean)” value in experiment [1], in experiment [2] and in experiment [3] were 1 ratio, 0.86 ratio and 0.54 ratio, respectively.

B16: anti-IgE E27 IgG1 variant P331(350)E (antibody)
heavy: not shown
light: DIQLTQSPSSLSASVGDRVTITCRASKPVDGEGDSYLNWYQQKPGKAPKLLIYAASYLESGVPSRFSGSGSGTDFTLTISSLQPEDFATYYCQQSHEDPYTFGQGTKVEIKRTVAAPSVFIFPPSDEQLKSGTASVVCLLNNFYPREAKVQWKVDNALQSGNSQESVTEQDSKDSTYSLSSTLTLSKADYEKHKVYACEVTHQGLSSPVTKSFNRGEC
notes: Fc variant of E27; also called IG2 200
As to B16, the figures for the “ratio of binding, variant/native IgG1 (mean)” value in experiment [1], in experiment [2] and in experiment [3] were 1.06 ratio, 0.42 ratio and 0.36 ratio, respectively.
